These results are taken from article PMC10028186.

For orientation: Kd means the equilibrium constant for the complex coming apart. Higher therefore signals weaker binding.

For the data set, the system named is Strep-msIHF (mycobacterial integration host factor) (Mycobacterium smegmatis mc2 155). Nature of the data set: BLI. Conditions: BLI: PBS with 50 mM Tris-HCl pH 7.5, 150 mM NaCl, 0.1 mg/ml BSA, 0.05% Tween-20, 30 C. EMSA: 50 mM Tris-HCl pH 8, 150 mM NaCl, 10 mM Mg acetate, 0.02% ….

In the case of attB fragment, the dissociation constant Kd was 250 nM.
The value for oriC fragment was 270 nM.
